From patent US20210246166A1 (Bayer, published 2021)
Numbered stars: 1 amine (or outer) side, 2 acyl side, 3 side chain; on linkers, the order of the positions; unused ones are H or OH. Bridge positions count the residues as written; N and C are the ends. Square brackets hold non-standard residues; d marks the D form. Ends that are not written are not given here. (S)‑4‑Piperazine‑2‑carboxylic acid = (S)-4-piperazine-2-carboxylic acid; 4‑Aminomethylphenylacetic acid = O=C(Cc1ccc(CN[*:1])cc1)[*:2]; NHCH2(1,3-C6H4)CH2CO = O=C(Cc1cccc(CN[*:1])c1)[*:2]; Phe(3-COOH) = N[C@@H](Cc1cccc(C(=O)O)c1)C(=O)O; Oic = O=C(O)[C@@H]1C[C@@H]2CCCC[C@@H]2N1; PEG6 = NCCOCCOCCOCCOCCOCCOCCC(=O)O; tBuAla = CC(C)(C)C[C@H](N)C(=O)O; Pen = CC(C)(S)[C@H](N)C(=O)O; PEG3 = NCCOCCOCCOCCC(=O)O; Orn = NCCC[C@H](N)C(=O)O; dβPro = D-beta-Proline; Sar = CNCC(=O)O

B1: Example 472: ((N-Me)G)-IC+SRSLP-(Oic)-I-(Pen)+IP-(PEG5(22 atoms))-OH (peptide)
peptide: [Sar]ICSRSLP[Oic]I[Pen]IP[PEG6]-OH
modifications: disulfide 3-11; N-terminus assumed
SMILES: CC[C@H](C)[C@H](NC(=O)CNC)C(=O)N[C@H]1CSSC(C)(C)[C@@H](C(=O)N[C@H](C(=O)N2CCC[C@H]2C(=O)NCCOCCOCCOCCOCCOCCOCCC(=O)O)[C@@H](C)CC)NC(=O)[C@H]([C@@H](C)CC)NC(=O)[C@@H]2C[C@@H]3CCCC[C@@H]3N2C(=O)[C@@H]2CCCN2C(=O)[C@H](CC(C)C)NC(=O)[C@H](CO)NC(=O)[C@H](CCCNC(=N)N)NC(=O)[C@H](CO)NC1=O
B2: Example 469: (Orn)-IC+SRSLP-(Oic)-I-(Pen)+IPD-OH (peptide)
peptide: [Orn]ICSRSLP[Oic]I[Pen]IPD-OH
modifications: disulfide 3-11; N-terminus assumed
SMILES: CC[C@H](C)[C@H](NC(=O)[C@@H](N)CCCN)C(=O)N[C@H]1CSSC(C)(C)[C@@H](C(=O)N[C@H](C(=O)N2CCC[C@H]2C(=O)N[C@@H](CC(=O)O)C(=O)O)[C@@H](C)CC)NC(=O)[C@H]([C@@H](C)CC)NC(=O)[C@@H]2C[C@@H]3CCCC[C@@H]3N2C(=O)[C@@H]2CCCN2C(=O)[C@H](CC(C)C)NC(=O)[C@H](CO)NC(=O)[C@H](CCCNC(=N)N)NC(=O)[C@H](CO)NC1=O
B3: Example 484: ((N-Me)G)-IC+SRSLP-(Oic)-I-(Pen)+IPD-(PEG2(13 atoms))-OH (peptide)
peptide: [Sar]ICSRSLP[Oic]I[Pen]IPD[PEG3]-OH
modifications: disulfide 3-11; N-terminus assumed
SMILES: CC[C@H](C)[C@H](NC(=O)CNC)C(=O)N[C@H]1CSSC(C)(C)[C@@H](C(=O)N[C@H](C(=O)N2CCC[C@H]2C(=O)N[C@@H](CC(=O)O)C(=O)NCCOCCOCCOCCC(=O)O)[C@@H](C)CC)NC(=O)[C@H]([C@@H](C)CC)NC(=O)[C@@H]2C[C@@H]3CCCC[C@@H]3N2C(=O)[C@@H]2CCCN2C(=O)[C@H](CC(C)C)NC(=O)[C@H](CO)NC(=O)[C@H](CCCNC(=N)N)NC(=O)[C@H](CO)NC1=O
B4: Example 480: (beta-P)-IC+SRS-((tBu)A)-PPI-(Pen)+IPD-OH (peptide)
peptide: XICSRS[tBuAla]PPI[Pen]IPD-OH
modifications: disulfide 3-11; not fully specified (residue 1); printed as (beta-P)-IC + SRS-((tBu)A)-PPI-(Pen) + IPD-OH
B5: Example 477: ((N-Me)G)-IC+SRSLP-(Oic)-I-(Pen)+IP-(3-Aminomethylphenylacetic acid)-OH (peptide)
peptide: [Sar]ICSRSLP[Oic]I[Pen]IP[NHCH2(1,3-C6H4)CH2CO]-OH
modifications: disulfide 3-11; N-terminus assumed
SMILES: CC[C@H](C)[C@H](NC(=O)CNC)C(=O)N[C@H]1CSSC(C)(C)[C@@H](C(=O)N[C@H](C(=O)N2CCC[C@H]2C(=O)NCc2cccc(CC(=O)O)c2)[C@@H](C)CC)NC(=O)[C@H]([C@@H](C)CC)NC(=O)[C@@H]2C[C@@H]3CCCC[C@@H]3N2C(=O)[C@@H]2CCCN2C(=O)[C@H](CC(C)C)NC(=O)[C@H](CO)NC(=O)[C@H](CCCNC(=N)N)NC(=O)[C@H](CO)NC1=O
B6: Example 483: ((N-Me)G)-IC+SRSLP-(Oic)-I-(Pen)+IP-((3-Carboxy)F)-OH (peptide)
peptide: [Sar]ICSRSLP[Oic]I[Pen]IP[Phe(3-COOH)]-OH
modifications: disulfide 3-11; N-terminus assumed
SMILES: CC[C@H](C)[C@H](NC(=O)CNC)C(=O)N[C@H]1CSSC(C)(C)[C@@H](C(=O)N[C@H](C(=O)N2CCC[C@H]2C(=O)N[C@@H](Cc2cccc(C(=O)O)c2)C(=O)O)[C@@H](C)CC)NC(=O)[C@H]([C@@H](C)CC)NC(=O)[C@@H]2C[C@@H]3CCCC[C@@H]3N2C(=O)[C@@H]2CCCN2C(=O)[C@H](CC(C)C)NC(=O)[C@H](CO)NC(=O)[C@H](CCCNC(=N)N)NC(=O)[C@H](CO)NC1=O
B7: Example 482: ((N-Me)G)-IC+SRS-((tBu)A)-PPI-(Pen)+IP-((3-Carboxy)F)-OH (peptide)
peptide: [Sar]ICSRS[tBuAla]PPI[Pen]IP[Phe(3-COOH)]-OH
modifications: disulfide 3-11; N-terminus assumed
SMILES: CC[C@H](C)[C@H](NC(=O)CNC)C(=O)N[C@H]1CSSC(C)(C)[C@@H](C(=O)N[C@H](C(=O)N2CCC[C@H]2C(=O)N[C@@H](Cc2cccc(C(=O)O)c2)C(=O)O)[C@@H](C)CC)NC(=O)[C@H]([C@@H](C)CC)NC(=O)[C@@H]2CCCN2C(=O)[C@@H]2CCCN2C(=O)[C@H](CC(C)(C)C)NC(=O)[C@H](CO)NC(=O)[C@H](CCCNC(=N)N)NC(=O)[C@H](CO)NC1=O
B8: Example 478: aIC+SRSLP-(Oic)-I-(Pen)-+IP-(3-Aminomethylphenylacetic acid)-OH (peptide)
peptide: [dA]ICSRSLP[Oic]I[Pen]IP[NHCH2(1,3-C6H4)CH2CO]-OH
modifications: disulfide 3-11; N-terminus assumed
SMILES: CC[C@H](C)[C@H](NC(=O)[C@@H](C)N)C(=O)N[C@H]1CSSC(C)(C)[C@@H](C(=O)N[C@H](C(=O)N2CCC[C@H]2C(=O)NCc2cccc(CC(=O)O)c2)[C@@H](C)CC)NC(=O)[C@H]([C@@H](C)CC)NC(=O)[C@@H]2C[C@@H]3CCCC[C@@H]3N2C(=O)[C@@H]2CCCN2C(=O)[C@H](CC(C)C)NC(=O)[C@H](CO)NC(=O)[C@H](CCCNC(=N)N)NC(=O)[C@H](CO)NC1=O
B9: Example 476: ((N-Me)G)-IC+SRSLP-(Oic)-I-(Pen)+IP-(4-Aminomethylphenylacetic acid)-OH (peptide)
peptide: [Sar]ICSRSLP[Oic]I[Pen]IP[4‑Aminomethylphenylacetic acid]-OH
modifications: disulfide 3-11; N-terminus assumed
SMILES: CC[C@H](C)[C@H](NC(=O)CNC)C(=O)N[C@H]1CSSC(C)(C)[C@@H](C(=O)N[C@H](C(=O)N2CCC[C@H]2C(=O)NCc2ccc(CC(=O)O)cc2)[C@@H](C)CC)NC(=O)[C@H]([C@@H](C)CC)NC(=O)[C@@H]2C[C@@H]3CCCC[C@@H]3N2C(=O)[C@@H]2CCCN2C(=O)[C@H](CC(C)C)NC(=O)[C@H](CO)NC(=O)[C@H](CCCNC(=N)N)NC(=O)[C@H](CO)NC1=O

molecular target: T1, recombinant rat MASP1 active protease (amino acids 302-704, C-terminal His Tag) (rat, UniProt Q8CHN8 302-704); assay: cell-based or functional assay
T1 sequence: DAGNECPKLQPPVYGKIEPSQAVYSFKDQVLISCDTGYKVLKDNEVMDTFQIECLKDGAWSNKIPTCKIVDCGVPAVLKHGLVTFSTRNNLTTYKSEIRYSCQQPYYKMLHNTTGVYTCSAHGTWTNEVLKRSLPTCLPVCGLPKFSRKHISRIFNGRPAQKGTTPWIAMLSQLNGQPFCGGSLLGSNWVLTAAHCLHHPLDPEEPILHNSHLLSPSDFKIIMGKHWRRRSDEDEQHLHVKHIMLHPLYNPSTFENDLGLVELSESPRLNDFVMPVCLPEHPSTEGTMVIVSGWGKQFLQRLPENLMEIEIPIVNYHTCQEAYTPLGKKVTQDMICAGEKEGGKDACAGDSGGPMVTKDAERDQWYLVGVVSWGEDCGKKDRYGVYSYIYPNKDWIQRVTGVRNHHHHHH

Point of comparison: B2, “rat MASP1 IC50” value 120 nM. Against it:
- B1 — within 1.5-fold, 100 nM
- [Sar]ICSRSLP[Oic]I[Pen]IP[PEG4‑CH2CO2H(15atoms)]-OH (disulfide 3-11) [Example 470: ((N-Me)G)-IC+SRSLP-(Oic)-I-(Pen)+IP-(PEG4-CH2CO2H (15 atoms))-OH] — within 1.5-fold, 100 nM
- [Sar]ICSRSLP[Oic]I[Pen]IPD[PEG4‑CH2CO2H(15atoms)]-OH (disulfide 3-11) [Example 471: ((N-Me)G)-IC+SRSLP-(Oic)-I-(Pen)+IPD-(PEG4-CH2CO2H (15 atoms))-OH] — 1.5-fold lower, 78 nM
- B3 — 1.9-fold lower, 63 nM
- B4 — 5-fold lower, 24 nM
- [dβPro]ICSRS[tBuAla]PPI[Pen]IPD-OH (disulfide 3-11) [Example 481: (beta-p)-IC+SRS-((tBu)A)-PPI-(Pen)+IPD-OH] — 6-fold lower, 20 nM
- [Sar]ICSRSLP[Oic]I[Pen]I[(S)‑4‑Piperazine‑2‑carboxylic acid]-OH (disulfide 3-11) [Example 474: ((N-Me))-GIC+SRSLP-(Oic)-I-(Pen)+I-((S)-4-Piperazine-2-carboxylic acid)-OH] — within 1.5-fold, 87 nM
- B5 — within 1.5-fold, 154 nM
- B6 — 3.5-fold lower, 34 nM
- B7 — 6.7-fold lower, 18 nM
- B8 — 1.8-fold lower, 68 nM
- B9 — 2.3-fold lower, 53 nM
- [Piperidin‑4‑ylacetic acid]ICSRS[tBuAla]PPICIPD-OH (disulfide 3-11) [Example 475: (Piperidin-4-ylacetic acid)-IC+SRS-((tBu)A)-PPIC+IPD-OH] — 2.1-fold higher, 250 nM

molecular target: recombinant rat MASP2 active protease (amino acids 296-685, C-terminal His Tag) (rat, UniProt Q9JJS8 296-685); assay: cell-based or functional assay
Sequence (Q9JJS8 other isoform, or with tags, fused parts or gaps limits assumed): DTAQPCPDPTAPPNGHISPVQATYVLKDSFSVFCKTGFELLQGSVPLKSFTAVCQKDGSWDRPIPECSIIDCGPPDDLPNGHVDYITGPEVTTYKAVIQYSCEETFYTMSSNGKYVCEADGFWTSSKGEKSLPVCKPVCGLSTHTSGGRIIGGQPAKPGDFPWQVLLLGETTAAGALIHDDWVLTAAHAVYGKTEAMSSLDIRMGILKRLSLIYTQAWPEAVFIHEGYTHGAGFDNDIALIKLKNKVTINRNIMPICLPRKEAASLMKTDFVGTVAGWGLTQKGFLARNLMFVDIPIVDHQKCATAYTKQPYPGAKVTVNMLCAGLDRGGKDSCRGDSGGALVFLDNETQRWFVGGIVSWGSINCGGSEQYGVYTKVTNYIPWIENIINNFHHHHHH

Point of comparison: [Sar]ICSRSLP[Oic]I[Pen]I[(S)‑4‑Piperazine‑2‑carboxylic acid]-OH (disulfide 3-11) [Example 474: ((N-Me))-GIC+SRSLP-(Oic)-I-(Pen)+I-((S)-4-Piperazine-2-carboxylic acid)-OH], “rat MASP2 IC50” value 26 nM. Against it:
- B1 — 1.9-fold higher, 49 nM
- B2 — within 1.5-fold, 34 nM
- [Sar]ICSRSLP[Oic]I[Pen]IP[PEG4‑CH2CO2H(15atoms)]-OH (disulfide 3-11) [Example 470: ((N-Me)G)-IC+SRSLP-(Oic)-I-(Pen)+IP-(PEG4-CH2CO2H (15 atoms))-OH] — 2.1-fold higher, 54 nM
- [Sar]ICSRSLP[Oic]I[Pen]IPD[PEG4‑CH2CO2H(15atoms)]-OH (disulfide 3-11) [Example 471: ((N-Me)G)-IC+SRSLP-(Oic)-I-(Pen)+IPD-(PEG4-CH2CO2H (15 atoms))-OH] — 2.7-fold higher, 71 nM
- B3 — 3.4-fold higher, 88 nM
- B4 — 1.6-fold higher, 41 nM
- [dβPro]ICSRS[tBuAla]PPI[Pen]IPD-OH (disulfide 3-11) [Example 481: (beta-p)-IC+SRS-((tBu)A)-PPI-(Pen)+IPD-OH] — within 1.5-fold, 36 nM
- B5 — 4.7-fold higher, 123 nM
- B6 — 1.9-fold higher, 50 nM
- B7 — within 1.5-fold, 33 nM
- B8 — 1.9-fold higher, 49 nM
- B9 — 2.3-fold higher, 61 nM
- [Piperidin‑4‑ylacetic acid]ICSRS[tBuAla]PPICIPD-OH (disulfide 3-11) [Example 475: (Piperidin-4-ylacetic acid)-IC+SRS-((tBu)A)-PPIC+IPD-OH] — within 1.5-fold, 25 nM
